# Measurements from patent publication US20090258005A1 (TRUBION PHARMACEUTICALS, published 2009).
# Numbering of substitutions follows the chain as printed.
# T1: L1-CR1 (Her054P)
# T1 construct: also called 1.0
# T1 chain: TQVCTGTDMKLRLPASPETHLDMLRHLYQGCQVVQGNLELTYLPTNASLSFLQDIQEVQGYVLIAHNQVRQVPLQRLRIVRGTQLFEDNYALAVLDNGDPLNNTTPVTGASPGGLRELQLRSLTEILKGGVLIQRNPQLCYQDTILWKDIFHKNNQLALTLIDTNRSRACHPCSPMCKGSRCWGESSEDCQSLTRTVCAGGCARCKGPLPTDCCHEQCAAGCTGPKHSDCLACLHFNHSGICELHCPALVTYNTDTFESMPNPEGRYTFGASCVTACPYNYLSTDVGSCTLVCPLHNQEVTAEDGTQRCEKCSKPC
# B1: S1R3A1_CS_1B9 (scFv, V domains shown)
# VH: KVQLVQSGTEVKKPGESLKISCQGSGYRFSSDWIAWVRQMPGKGLEWMGIVYPGDSDTRYSPSFQGQVTISADKSISTAYLQWSGLKASDTAKYYCARVQQAVGAKGYAMDVWGKGTLVTVSS
# VL: QTVVIQEPSFSVSPGGTVTLTCGLSSGSVSTSYYPSWYRQTPGQAPHTLIHNTKIRSSGVPDRFSGSILGNNAALTITGAQADDESDYYCLLYMGSGIYVFGGGTKLTVL
# notes: scFv, soluble from bacterial periplasm in the screen; also called Her2_S1R3A1_CS_1B9
# B2: S1R3A1_CS_1B10 (scFv, V domains shown)
# VH: EVQLVQSGAEVKKPGASVRVSCKGSGNTFTGHYIHWVRQAPGQGLEWLGWIDPNTGDIQYSENFKGSVTLTRDPSINSVFMDLIRLTSDDTAMYYCAREGAGLANYYYYGLDVWGRGTMVTVSS
# VL: QTVVLQEPSFSVSPGGTVTLTCGLNFGSVSTAYYPSWYQQTPGQAPRTLIYGTNIRSSGVPDRFSGSIVGNKAALTITGAQTEDESDYYCALYMGSGMLFGGGTKVTVL
# notes: scFv, soluble from bacterial periplasm in the screen; also called Her2_S1R3A1_CS_1B10
# B3: S1R3C1_DP47_1H1 (scFv, V domains shown)
# VH: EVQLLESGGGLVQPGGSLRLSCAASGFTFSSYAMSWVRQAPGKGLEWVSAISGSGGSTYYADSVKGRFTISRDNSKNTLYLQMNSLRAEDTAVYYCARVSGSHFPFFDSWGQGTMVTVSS
# VL: QSVLTQPPSVSVAPGQTARITCGGDKIGHKSVHWYQQKPGQAPVLLVYDDRKRPSGIPERFSGSNSGNTATLTISRVEAGDEAAYHCQVWDRSSDPYVFGTGTKVTVL
# notes: scFv, soluble from bacterial periplasm in the screen; also called Her2_S1R3C1_DP47_1H1
# B4: S1R3B1_DP47_1E1 (scFv, V domains shown)
# VH: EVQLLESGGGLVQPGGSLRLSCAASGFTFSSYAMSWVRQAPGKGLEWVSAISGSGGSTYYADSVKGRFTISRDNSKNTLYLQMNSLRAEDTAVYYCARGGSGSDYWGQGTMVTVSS
# VL: NFMLTQPHSVSGSPGKTVTISCTRSSGYIDSKYVQWYQQRPGSAPTTVIYEDNRRPSGVPDRFSGSIDSSSNSASLTISGLETEDEADYYCQSYDDTNVVFGGGTKVTVL
# notes: scFv, soluble from bacterial periplasm in the screen; also called Her2_S1R3B1_DP47_1E1
# B5: S1R3C1_BMV_1H11 (scFv, V domains shown)
# VH: GVQLVESGGGLVKPGGSLRLSCAASGFTFSSYNMNWVRQAPGKGLEWVSAISGSGGSTYYADSVTGRFTISRDNSKNTLYLQMNSLRAEDTAVYYCAKDTSGWYGDGMDVWGRGTLVTVSS
# VL: DIQMTQSPSTLSASIGDRVTITCRASEGIYHWLAWYQQKPGKAPKLLIYKASSLASGAPSRFSGSGSGTDFTLTISSLQPDDFATYYCQQYSNYPLTFGGGTKLEIK
# notes: scFv, soluble from bacterial periplasm in the screen; also called Her2_S1R3C1_BMV_1H11
# B6: S1R3B2_DP47_1E10 (scFv, V domains shown)
# VH: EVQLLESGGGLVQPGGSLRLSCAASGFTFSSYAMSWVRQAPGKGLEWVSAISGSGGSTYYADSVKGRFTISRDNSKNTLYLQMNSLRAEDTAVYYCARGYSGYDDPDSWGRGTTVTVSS
# VL: HVILTQPPSTSGTPGQTVTISCSGSSSNIGSHYVYWYQQLPGTAPKLLIYRNNQRPSGVPDRFSGSKSGTSASLAISGLRSEDETDYYCAAWDDSLSGRVFGTGTKLTVL
# notes: scFv, on phage in the screen; also called Her2_S1R3B2_DP47_1E10
# B7: S1R3B1_BMV_1A10 (scFv, V domains shown)
# VH: QMQLVQSGGGVVQPGRSLRLSCAASGFTFSSYGMHWVRQAPGKGLEWVAVISYDGSIKYYADSVKGRFTISRDNSKNTLYLQMNSLRAEDTGVYYCSKDRYSSGWYSSDAFDIWGRGTMVTVSS
# VL: SSELTQDPAVSVALGQTVRITCQGDSLRSYYASWYQQKPGQAPVLVIYGKNNRPSGIPDRFSGSSSGNTASLTITGAQAEDEADYYCHSRDSSGNHVLFGGGTKLTVL
# notes: scFv, soluble from bacterial periplasm in the screen; also called Her2_S1R3B1_BMV_1A10
# B8: S1R2A_CS_1D3 (scFv, V domains shown)
# VH: EVQLVQSGAEVKKPGASVKVSCKASGYSFTAFYIHWVRQAPGQGLEYLGWIDPNTGATKYAQRFQGRVIMTWDTSITTATMELSRLTSDDSAVYYCVRDLREWGYELSVEYWGRGTLVTVSS
# VL: not shown
# notes: scFv, on phage in the screen
# B9: S1R3A1_BMV_1G4 (scFv, V domains shown)
# VH: QVQLVESGAEVKKPGASVKVSCKASGYTFTSYDINWVRQAPGQRLEWMGWINAGNGNTKYSQKFQGRVTITRDTSASTAYMELRSLRSDDTAVYYCARGRSYGHPYYFDYWGQGTLVTVSS
# VL: QSVLTQPASVSGSPGQSITISCTGTSSDVGGYNYVSWYQQHPGKAPKLMIYEGSKRPSGVSNRFSGSKSGNTASLTISGLQAEDEADYYCSSYTTRSTRVFGGGTKLTVL
# notes: scFv, soluble from bacterial periplasm in the screen; also called Her2_S1R3A1_BMV_1G4
# B10: S1R3B2_BMV_1E1 (scFv, V domains shown)
# VH: EVQLVETGGGVVQPGGSLSLSCAASGFTFSSYGMQWVRQAPGKGLEWVAFIRYDGSSEYYADSVKGRFTISRDNSKNTLYLQMNSLRAEDTAVYYCGRTLESSLWGKGTLVTVSS
# VL: QSVLTQPPSVSAAPGQKVTISCSGSTSNIGNNYVSWYQQHPGKAPKLMIYDVSKRPSGVPDRFSGSKSGNSASLDISGLQSEDEADYYCAAWDDSLSEFLFGTRTKLTVL
# notes: scFv, on phage in the screen; also called Her2_S1R3B2_BMV_1E1
# B11: S1R2C_CS_1H12 (scFv, V domains shown)
# VH: EVQLVETGGGLVQPGGSLRLSCAASGFTFSSYGMNWVRQAPGKGLEWVSYISSSGNTIFYADSVKGRFTISRDSAKNSVSLQMNSLRDEDTAVYYCASYYSYYYGMDAWGQGTMVTVSS
# VL: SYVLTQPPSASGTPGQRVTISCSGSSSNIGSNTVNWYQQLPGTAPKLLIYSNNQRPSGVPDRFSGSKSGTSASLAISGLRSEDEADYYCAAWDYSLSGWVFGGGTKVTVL
# notes: scFv, on phage in the screen
# B12: S1R3B2_DP47_1E8 (scFv, V domains shown)
# VH: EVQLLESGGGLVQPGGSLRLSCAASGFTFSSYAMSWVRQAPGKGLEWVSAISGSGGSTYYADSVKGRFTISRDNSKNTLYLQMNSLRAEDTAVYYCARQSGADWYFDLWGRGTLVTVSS
# VL: QAVLTQPSAVSGAPGQRVTISCTGTSSNIGTNYLVHWYQQRPGTAPQLLVSGNNTRPSGVTDRFSVSKSATSASLAITGLQAEDEADYYCQTYDINLRVWVFGGGTKVTVL
# notes: scFv, on phage in the screen; also called Her2_S1R3B2_DP47_1E8
# B13: S1R3B2_DP47_1C9 (scFv, V domains shown)
# VH: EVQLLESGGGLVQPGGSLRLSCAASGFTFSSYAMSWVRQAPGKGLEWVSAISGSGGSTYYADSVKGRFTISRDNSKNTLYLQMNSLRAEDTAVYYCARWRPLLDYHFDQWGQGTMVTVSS
# VL: QSVLTQPPSASGTPGQTVTISCSGSSSNIGSSVVNWYQQFPGTAPKVLVYSNTQRPSGVPDRFSGSRSGTSASLAISGLQSEDEADYYCLAWDASLNGWVFGGGTKLTVL
# notes: scFv, on phage in the screen; also called Her2_S1R3B2_DP47_1C9
# B14: S1R3B1_BMV_1C12 (scFv, V domains shown)
# VH: EVQLVQSGGGVVQPGRSLRLSCAASGFTFSSYGMHWVRQAPGKGLEWVAVISYDGSIKYYADSVKGRFTISRDNSKNTLYLQMNSLRAEDTAVYYCARTGEYSGYDTSGYSNWGQGTLVTVSS
# VL: QSVLTQPPSASGTPGQRVTISCSGSSSNIGSNTVNWYQRLPGAAPQLLIYNNDQRPSGIPDRFSGSKSGTSGSLVISGLQSEDEADYYCASWDDSLNGRVFGGGTKLTVL
# notes: scFv, soluble from bacterial periplasm in the screen; also called Her2_S1R3B1_BMV_1C12
# B15: S1R3C1_CS_1B10 (scFv, V domains shown)
# VH: QVQLQQSGAEVKKPGSSVKVSCKASGGTISNYAISWVRLAPGQGLEWMGSIVPLHGTTNFAQKFQGRVTITADESTSTSYMEVNVLTYEDTAMYYCASLNWGYWGRGTLVTVSS
# VL: NFMLTQPHSVSESPGKTVTISCTGSSGSIASNYVQWYQQRPDSAPTTVIYEDNRRSSGVPDRFSGSIDSSSNSASLSISGLKTEDEADYYCQSYDSSGHVVFGGGTKLTVL
# notes: scFv, on phage in the screen; also called Her2_S1R3C1_CS_1B10
# B16: S1R3C1_CS_1A6 (scFv, V domains shown)
# VH: EVQLVQSGAEVKKPGESLKISCKGFGYNFRSAWIGWVRQMPGKGLEWMGVIYPGDSDVRYSPSFQGQVTISADKSISTAYLQWSSLKASDTAMYYCTRPVGQWVDSDYWGKGTLVTVSS
# VL: QSVLTQPPSASGTPGQRVTISCSGSSSNIGTNTVNWYQQLPGTAPKLLIYTSNQRPSGVPARFSASNSGTSASLAISGLRSEDEADYYCAAWDDKLSGAVFGGGTKLTVL
# notes: scFv, on phage in the screen; also called Her2_S1R3C1_CS_1A6
# B17: S1R3B2_BMV_1H5 (scFv, V domains shown)
# VH: EVQLVQSGGGLVRPGGSLRLSCAASGFSFSDYYMTWIRQIPGKGLEWVAVIWNDGSDRYYADSVKGRFTISRDNSKNTLFLQMSSLRDEDTALYYCVRGGPTASSGFDYWGRGTLVTVSS
# VL: B9 VL with Q1S, V3E, Q39L
# notes: scFv, on phage in the screen; also called Her2_S1R3B2_BMV_1H5
# B18: S1R2A_CS_1F7 (scFv, V domains shown)
# VH: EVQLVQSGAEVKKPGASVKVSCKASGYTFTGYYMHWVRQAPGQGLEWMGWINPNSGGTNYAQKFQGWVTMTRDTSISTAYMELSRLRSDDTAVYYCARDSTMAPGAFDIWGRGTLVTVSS
# VL: QSVLTQPPSVSVAPGQTARMTCGGNNIESKTVHWYQQKPGQAPVLVVYNDNVRPSGIPARFSGSNSGNTATLTINRVEAGDEADYYCQVWDSSRDQGVFGGGTKLTVL
# notes: scFv, on phage in the screen
# Target: T2, Her008P, full-length extracellular domain (ECD) of Her2 expressed with a mIgG2a Fc tail (human; murine, UniProt P04626 23-652)
# T2 construct: also called SIIS; SIIS (Dimer); not shown: murine IgG2a Fc tail
# Test: ELISA, soluble scFv on ECD
# Experimental: (§1) Various Her2-Fc proteins (e.g., Her008P, Her017P, Her018P, etc.) or a negative control murine IgG2a protein were coated overnight at 4° C. on 96-well Nunc Maxisorp at a concentration of 1 ug/ml in PBS. Alternatively, pre-blocked streptavidin-coated plates (Greiner) were coated with biotinylated Her2-Fc proteins for 1 hour at room temperature at a concentration of 1 ug/ml in block buffer (3% skim milk/1% BSA/PBS). Plates were washed three times using PBS and blocked for 1 hour at room temperature in 3% skim milk/1% BSA/PBS. Phage or peripreps were prepared as described above and were blocked for 1 hour at room temperature in an equal volume of 6% skim milk/1% BSA/PBS. Blocked plates were washed five times with PBS and 50 μl/well of blocked phage or periprep were transferred to the appropriate plates and incubated for 1 hour at room temperature. […] Plates were incubated for a further hour at room temperature and washed seven times with PBS. Signal was developed using TMB, the reaction stopped with H₂SO₄ and the absorbance read at 450 nm on an Envision plate reader (Perkin Elmer).
row,Binder,binding result
1,B1,binds
2,B2,binds

# Target: T3, EQR (Her017P)
# T3 construct: also called HER2 EQR-Fc; HER2 EQR DIMER
# Test: ELISA, soluble scFv on EQR
# Experimental: as §1
row,Binder,binding result
1,B3,no binding
2,B4,no binding
3,B5,no binding
4,B6,no binding
5,B7,no binding
6,B8,no binding
7,B1,binds
8,B9,no binding
9,B10,no binding
10,B2,binds
11,B11,no binding

# Target: T4, Her018P, Her2 ECD with a deletion in the CR2 (Domain IV) region expressed with a mIgG2a Fc tail (human; murine, UniProt P04626 23-599)
# T4 construct: Shares the name HER018 with the trastuzumab SMIP; also called 1.8 (Dimer); dimeric HER018; not shown: murine IgG2a Fc tail (C-terminal dimerising carrier) and any junction residues
# Test: ELISA, soluble scFv on Her018
row,Binder,binding result
1,B3,no binding
2,B4,no binding
3,B5,no binding
4,B12,no binding
5,B6,no binding
6,B7,no binding
7,B8,no binding
8,B1,binds
9,B9,no binding
10,B10,no binding
11,B13,no binding
12,B2,binds
13,B11,no binding

# Target: T1, L1-CR1 (Her054P)
# Test: ELISA, soluble scFv on L1-CR1
# Experimental: as §1
row,Binder,binding result
1,B14,no binding
2,B3,no binding
3,B4,no binding
4,B15,no binding
5,B5,no binding
6,B12,no binding
7,B6,no binding
8,B7,no binding
9,B8,no binding
10,B16,no binding
11,B17,no binding
12,B9,no binding
13,B10,no binding
14,B13,no binding
15,B11,no binding
16,B18,no binding

# Target: T5, Full length HER2 (human, UniProt P04626 23-1255)
# T5 construct: Endogenous HER2 on SKBR3, BT474, 22rv1, MDA-MB-175, MDA-MB-453 and MDA-MB-361 cells; also called HER2 on the cell surface; ErbB2
# Test: cell ELISA, phage scFv, SKBR3 cells
row,Binder,binding result
1,B12,binds
2,B6,binds
3,B8,binds
4,B16,binds
5,B17,binds
6,B10,binds
7,B13,binds
8,B11,binds
9,B18,binds

# Target: T6, ECD region of Her2 (human, UniProt P04626 23-652)
# T6 construct: extracellular domain; Generic target of the scFv screen; also called extracellular domain (ECD) of Her2 (ErbB2)
# Test: screening after three rounds of phage selection, soluble periplasmic scFv
row,Binder,binding result
1,B1,binds
2,B2,binds
